We go through two proteins from paper doi:10.1101/2022.08.03.502687 (bioRxiv, 2022).

This data set concerns the molecule itself. The data set can be described thus: single-molecule photobleaching subunit capture.

B1: CLC-ec1 'WT' background (C85A/H234C) treated with glutaraldehyde (natural protein)
chain: MKTDTPSLETPQAARLRRRQLIRQLLERDKTPLAILFMAAVVGTLVGLAAVAFDKGVAWLQNQRMGALVHTADNYPLLLTVAFLASAVLAMFGYFLVRKYAPEAGGSGIPEIEGALEDQRPVRWWRVLPVKFFGGLGTLGGGMVLGREGPTVQIGGNIGRMVLDIFRLKGDEARHTLLATGAAAGLAAAFNAPLAGILFIIEEMRPQFRYTLISIKAVFIGVIMSTIMYRIFNCEVALIDVGKLSDAPLNTLWLYLILGIIFGIFGPIFNKWVLGMQDLLHRVHGGNITKWVLMGGAIGGLCGLLGFVAPATSGGGFNLIPIATAGNFSMGMLVFIFVARVITTLLCFSSGAPGGIFAPMLALGTVLGTAFGMVAVELFPQYHLEAGTFAIAGMGALLAASIRAPLTGIILVLEMTDNYQLILPMIITGLGATLLAQFTGGKPLYSAILARTLAKQEAEQLARSKAASASENT
modifications: Cy5-maleimide on H234C; cross-linked with glutaraldehyde (residues not stated)
As for B1, the binding result is “binds”.

B2: CLC-ec1 R230C/L249C on the 'WT' background (C85A/H234C), disulfide cross-linked (natural protein)
chain: MKTDTPSLETPQAARLRRRQLIRQLLERDKTPLAILFMAAVVGTLVGLAAVAFDKGVAWLQNQRMGALVHTADNYPLLLTVAFLASAVLAMFGYFLVRKYAPEAGGSGIPEIEGALEDQRPVRWWRVLPVKFFGGLGTLGGGMVLGREGPTVQIGGNIGRMVLDIFRLKGDEARHTLLATGAAAGLAAAFNAPLAGILFIIEEMRPQFRYTLISIKAVFIGVIMSTIMYCIFNCEVALIDVGKLSDAPCNTLWLYLILGIIFGIFGPIFNKWVLGMQDLLHRVHGGNITKWVLMGGAIGGLCGLLGFVAPATSGGGFNLIPIATAGNFSMGMLVFIFVARVITTLLCFSSGAPGGIFAPMLALGTVLGTAFGMVAVELFPQYHLEAGTFAIAGMGALLAASIRAPLTGIILVLEMTDNYQLILPMIITGLGATLLAQFTGGKPLYSAILARTLAKQEAEQLARSKAASASENT
For the protein B2, the binding result is recorded as “binds”.
